Laboratory results reported in the DeepSol protein solubility set.

Assay: soluble on expression in E. coli; label from the status in PepcDB or PDB records

Row | Sequence | soluble on expression in E. coli
1 | MYRDRVRLPSLLDKVMSAAEAADLIQDGMTVGMSGFTRAGEAKAVPQALAMRAKERPLRISLMTGASLGNDLDKQLTEAGVLARRMPFQVDSTLRKAINAGEVMFIDQHLSETVEQLRNHQLKLPDIAVIEAAAITEQGHIVPTTSVGNSASFAIFAKQVIVEINLAHSTNLEGLHDIYIPTYRPTRTPIPLTRVDDRIGSTAIPIPPEKIVAIVINDQPDSPSTVLPPDGETQAIANHLIDFFKREVDAGRMSNSLGPLQAGIGSIANAVMCGLIESPFENLTMYSEVLQDSTFDLIDAGKLRFASGSSITLSPRRNADVFGNLERYKDKLVLRPQEISNHPEVVRRLGIIGINTALEFDIYGNVNSTHVGGTKMMNGIGGSGDFARNAHLAIFVTKSIAKGGNISSVVPMVSHVDHTEHDVDILVTEQGLADLRGLAPRERARVIIENCVHPSYQAPLLDYFEAACAKGGHTPHLLREALAWHLNLEERGHMLAG | soluble
2 | QNFLNDQFVIDSIVSAINPQKGQAMVEIGPGLAALTEPVGERLDQLTVIELDRDLAARLQTHPFLGPKLTIYQQDAMTFNFGELAEKMGQPLRVFGNLPYNISTPLMFHLFSYTDAIADMHFMLQKEVVNRLVAGPNSKAYGRLSVMAQYYCNVIPVLEVPPSAFTPPPKVDSAVVRLVPHATMPHPVKDVRVLSRITTEAFNQRRKTIRNSLGNLFSVEVLTGMGIDPAMRAENISVAQYCQMANYLAENA | soluble
3 | MAGDPMANITLSTQHYRIHRSDVEPVKEKTTDKDVFAKSITAVRNSFISLSTSLSDRFSLHLQTDIPTTHFHRGSASEGRAVLTSKTVKDFMLQKLNSLDIKGNASKDPAYARQTCEAMLSAVYSNNKDHCCKLLISKGVSITPFLKEIGEAAQNAGLPGEIKNGVFTPGGAGANPFVVPLIAAASIKYPHMFINHNQQVSFKAYAEKIVMKEVTPLFNKGTMPTPQQFQLTIENIANKYLQNASLEHHHHHH | not soluble
4 | MQIRFAGIGGQGVVLAGVILGEAAAIEGLRVLQTQDYSSASRGGHSIADVIISNEEIYDVMVTEADVLVALHQLGYETAKSKLKKDGILIIDTDLVKPDREYIGAPFTRIAEETTGLALTVNMVALGYLIGKTQIVKPESVEEAIRRRVPKGTEEINIKAFRKGLEVSMNE | not soluble
5 | MGSDKIHHHHHHAFTTGENDPFIKSPTVAKLTNTPNGPLISCDLKALKDTVNFPLSQLTEELQIVKLDNRDEALIGGWIRTTVGEKYILVSNNKQTPYKLFDRTGKFITNIGSYGQGPNEYLNTYAEQLDEANNRIYILPWQSSKILVFDLKGNALDPIPLCLRVPKGKFRVNTAKSEVTVTVLPFPKWPAVVWTQDLKGKRKNFVAPGSLAMPQDFSNEVSMGNNTAAYDVMLMKIMPQPSVDTLYHYNAASNKLEGRFTVKYPSNDKIPWHAYYEIPKYFIGDVSFPIQIDESTFSGSKPAYYMVDKKTLHGNYVRLYNDFISTPSQTIYPSFNNGYYVTNMEPMALKEILEKEVNKKGLTADKKKKVQNLIKTLNDNDNNIVMFAKLKQ | not soluble
6 | MKSLIIVNPADCIGCRTCEVACVVAHPSEQELNADVFLPRLKVQRLDSISAPVMCHQCENAPCVGACPVGALTMGEQVVQTNSARCIGCQSCVSACPFGMITIQSLPGDTRQQIVKCDLCEQREEGPACVESCPTQALQLLTERELRRVRQQRIVASGENPL | not soluble
7 | MTQVSIIVPVLNEESTIHSAVSRLCRDFPDCELIVVDGGSTDATAELAALHATVIGSERGRAKQMNEGARHASGGILWFIHADTAIEPEALGQIRSVLADPAVVAGGLTLRFDRRTPALNYLAWTSNARARRLHHIFGDQAMFIRRTAFDELGGFPDLAIMEDLEMSRRLHRRGPLRLLPATSTASSRRLTAHGTWRMIAFMQYLKLLYFAGADPEAIRARYTAGPRLFPKRNPATLEHHHHHH | not soluble
8 | MNPGKPMPLVVHGWTIFAHPLFLAQIEVLIQQVEAHKQKDPVGFVKKNASKRLAAITKLAFDIILQDPARPEYRQGGTLGDDYKHWFRAKFFQQYRLFFRYHTLSKVIVFAWVNDEDTRRAYESSDDAYRMFRKMLENGLPPDDWNQLLAEARAEGQRLQQFAARWW | not soluble
9 | SGEVEISARAYGKMCLHASRYPHAAVNGLLLAPATGSGECLCLTDCVPLFHSHLALSVMLEVALNQVDVWGAQAGLVVAGYYHANAVLDDQSPGPLALKIAGRIAEFFPRAVLIMLDNKKLVTRPRVPPVIVLENQGLQWVPKDKNLVMWRDWEESRQMVGALLEGRAHQHLVDFDCHLDDIRQDWTNQRLNTQITQWSGSTDGNA | soluble
10 | GAGNYQLAVSTLAKVWKQLHIPDVYDVGAMYFIKTFLHFGVSLLSAGHAWTNPQSFLDNAPLRQTLGKMMPFDGIEPSIASGALQALALTASCYTTGMSVTFFQGEESLGEWTRYQRLGVRERIGLDHLMATAAIPLIFPSVRIGEKFYCDGAVRQLSPLSPALH | not soluble
11 | MPGGRGRIGVILPANNAGMEYDLWKMAPEGVSIHSTRMKPTKGCEPENVEEFEKELKYSYSLLAEVSDIIIYGRTYGTHKHAHVIKRVIKDVVIPEESVYELLKKLNVRKLWIGTPYIKERTLEEVEWWRNKGFEIVGYDGLGKIRGIDISNTPIFTIYRLVKRHLNEVLKADAVYIACTALSTYEAVQYLHEDLDMPVVSENAAAMWEALNKLKIKAKLPGF | soluble
12 | MGSDKIHHHHHHMRAHVTKKTLSEGLGLLERVIPSRSSNPLLTALKVEASEAGLTLSGTNLEIDLSYFVPAEVQAPQSFVIPAHLFAQIVRNLGGELVELELTGGELSVRAGGSDFKLQTGDLEAYPPLSFPTHTDVSLDAAELARALGSVRYAASNEAFQAVFRGIKLEHRPASARVVASDGYRVAIRDFPASGDGRNLIVPARSADELIRVLKDGEARFTYGEGLLSVTTDRVRMNLKLLDGEFPDYERVIPKDVKLQVTLPATALKEAVGRVAVLADKNANNRVEFLVSEGKLRLAAEGDYGRAQDTLDVVQGGAEPAMSLAFNARHVLDALGPIEGDAELLFSGSTSPAIFRASGGGDYMAVMVTLRV | not soluble
13 | KGNEFEDYCLKRELLMGIFEMGWEKPSPIQEESIPIALSGRDILARAKNGTGKSGAYLIPLLERLDLKKDNIQAMVIVPTRELALQVSQICIQVSKHMGGAKVMATTGGTNLRDDIMRLDDTVHVVIATPGRILDLIKKGVAKVDHVQMIVLDEADKLLSQDFVQIMEDIILTLPKNRQILLYSATFPLSVQKFMNSHLEKPYEIN | soluble
14 | MGSDKIHHHHHHMQFGAKPLFENVSVKFGNGNRYGLIGANGCGKSTFMKILGNDLEPSAGQVMLEPNVRLGKLRQDQFAYEDFSVIDTVIMGHEELWAVKAERDRIYSLPEMSEADGMAVAELEVQFAEFDGYTAESRAGELLLGLGIPLEQHFGPMSAVAPGWKLRVLLAQALFSDPDVLLLDEPTNHLDINTIRWLEGVLTARNSTMIIISHDRHFLNSVCTHMADLDYGELRLFPGNYDEYMTAAEQARERLLSDNAKKKAQIAELQSFVSRFSANASKAKQATSRARQIDKIQLEEVKPSSRVSPFIRFEQYKKLHRQAVTVENISKGYDGKPLFKGLSLQVEAGERVAIIGPNGIGKTTLLRCLVGDLPVDGGEVKWTDSADVGYFAQDHADDFADDMSLFDWMAQWTQGGEQLVRGTLGRMLFSNDEIKKSVKVISGGEQGRMLFGRLILKRPNVLVMDEPTNHLDMESIEALNLALDNYPGTLIFVSHDREFVSSLATRIIELGENGVTDFSGSYDDYLRSQGVIV | not soluble
15 | MGSDKIHHHHHHMILVTGANGLVGSFLCNELAGKGYRVKALVREKSDTSLLKAVAGSIELVYGDITDAGSLVDAMEDVMCVVHTAAVISFWNKKNKEMYQTNVVGTRNVVDVALEKGVKKMIHISSIAAIGRKATDTRIDEKNNWEESAVNTAYAVTKHQAELEIFRAVEEGLHAVIINPSVILGPGLKGTSSVRLFEYVQQKGKFYTDGDLNYVDVRDVVESIEYFISHETPAGERYILNGGTVSFKTFFEKIAEMLHTNPPSVKASDWMKQIVWRVEAIKAFITGKEPLITKSTARTATNKFEYSADKIMQLSQRSFRPLQDTIYWTCKQLF | not soluble
16 | MAIQVKASLRKNPQDKKAAGKYYAQVVLAPEMTQRQIIDQIADRCTVTGSDVKAVLDALMTVIKRNLANGSPIRLGDLGSFRPSVSGIGSENVDKFTASNVKKARVIYVPSAEIKEAVAMYAFSKVGATAEGGNTEKPGGGDIDNPGGGDEEAPDPTVLEHHHHHH | soluble
17 | MGHHHHHHSHMAAMLNFNLQQLCGPKCRDLKVENPEKYGFEPKKLLDQLTDIYLQLDCARFAKAIADDQRSYSKELFEEVISKMRKAGIKSTIAIEKFKLLAEKVEEIVAKNARAEIDYSDAPDEFRDPLMDTLMTDPVRLPSGTIMDRSIILRHLLNSPTDPFNRQTLTESMLEPVPELKEQIQAWMREKQNSDH | soluble
18 | MSLQVTDVEIAQYYQDNKAQFMTQHLAHIQFANEQDAKVAYEELQKGANFADVAKAKSLDKISGENGGDLGWVNENELPKAFEDAAAALQVGQYSQPINVDGNYHIVLVQERKAQSLENVKAQIADLVRKSLMESRYFSLEKQASDKAFEDSKSLNTAAQAAGVKVQESDYFSRQNVPAGLNFPNVIYTIFESDTTNVGMNSEPINVGDYHTIIVRVLDRKAEGVKSLEEAKIDIETFLKRQKAENALNGKAQQAVKKLSENPESKVDGINFSSEQTFTLSENKDPILTNGIFSIAKPESSKALYQVVHNSNGDVVVVALNKVEQGSLSEKELSQFAMQLLRSHQSELQVQLIQGLRERAKIEVNDSFINQDDEAQEGHHHHHH | soluble
19 | MSLARFFQPKKHSTLDTKHQPVTIERLDHQGSGLAFLHKKPLFVDGALPGEEVLIQLTENKSKYARGQLIKVLKPSAERVAPFCAHYAQCGGCDLQHLDRAGQIHHKQQALSQLMVKFAGQSLALSAPVCSDDQGYRRRARLSLMWDKKTQQLQLGFRRKQSKAIVNVTHCPVLEPSLNALLPDLNALLSEWSQPERLGHVELVKGDNTRVLVLRHLGALIEQDQQRLTDFASQNQLTLYLMLEAGELQHVQGEAPYCEETGSRLSFLPSHFIQVNRAVNQHMVVQALNWLEVSPQERVLDLFCGLGNFTLPLAKQAQAVVGVEGVDEMVQHATHNAKLNQINNVAFYQANLEQDMTSASWAQQKFAKVLLDPARAGAEGIVDQLSALGAKRVVYVSCNPATLARDSQSLLSQGFRLEKLGMLDMFPHTSHLESMALFVKKGEGHHHHHH | soluble
20 | MGSDKIHHHHHHLITIENSKFKAGIAERGAELQSLVNKADNYEYVWTGDKTFWNRHAPILFPSIGKSNQDQYRLGAKTYPMSQHGFARDYDFDVSDKSDSAVTFTQHQNAETLKKFPFEYTLAVTYMLTDGGLSVHYTVTNDDSKSMPFALGFHPAFNVGLKADGSFDDYDLTVEPLNSPLQRFGIGPVPFRNGDVEDIPGAEGNRLPLTHDLLDGGLVILANSEIAKATLASPHHDHSITLDISDFPYLTIWSPEHKKAPFIAVEPFDGLPDQAGEPTDWYTKLGNTTLSAGANKQLALKVELH | not soluble
21 | MGSDKIHHHHHHMPLLLKGSCRCNAVRFEVESHTPVPFMLCYCSICRKQQGGGGFAINLGAAYETLNIRGKRSLGVYRAEIEDDEHPHCEVSTGERNFCRKCGSALWLYDPTWPELVHPFASAIDSDLPKPPSRVHLMLKYKANWVEPVIGKGDKTFDVYPEESIADWHKLTGMWVD | not soluble
22 | MSLNLWGDRVGYSKYKYEGLLNLCLEVFQRLGYTKEDSYTIGEVLLLADLFGIESHGVQRLTLYYKGIRNGSIKVKNHMNIVKESPVSVVIDGDGGMGQIISKKAMERAIDKAKKTGIGMAIVKNSNHFGIAGYYSRMAERKGLMGIAMTNTRAIVLPTYGREQMLGTNPISIAMPARPIPFLLDMATSVITRGKVEVYSKNNQKLNYGWAMDDEGRKTDNPDKVLKLANGNTGGLLPLGGDTEIFGGHKGYGISFAVEMFTSILSGGLTSDEIRGNNNTNGVCHAFAAIDYGLFDDKNAIEKRMSAYMQKIRNSKKAYGASRIYTHGEKELEAYEDRMENGIPINENTIVEIKEICDYVDIDINNYLKEGHHHHHH | soluble
